Measurements reported in the nanobody polyreactivity screen of Harvey et al. (2022).

test: yeast display, Sf9 membrane polyspecificity reagent, FACS + sequencing; frameworks hold sequencing errors
Method in brief: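 Nanobodies came from a synthetic yeast display library in Saccharomyces cerevisiae BJ5465, induced with galactose for 36–48 hours and stained for 1 hour at 4 °C with 10% biotinylated, detergent-solubilized Sf9 membrane reagent. Cells were enriched on streptavidin microbeads and then FACS-sorted, with low and high (top ~1%) gates set on anti-HA fluorescence for expression and streptavidin fluorescence for reagent binding. Each polyreactivity label reflects the gate a clone came from. Genes were amplified by colony PCR, sequenced by MiSeq 2 × 250 and filtered by CDR length.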

Sequence	polyreactivity (PSR sort gate)
QVQLVESGGGLVQAGGILRLSCAASGLIFANNAMGWYRQAPGKERELVAAITGGGDGTYYADYVKGRFTISRDNAKNNVYFQMNSLKPEDTAVYYCAADYKYLGSEYCYWGQGTQVTVSS	low polyreactivity
QVQLVESGGGLVQAGGILRLSCAASGLIFPPNAMGWYRQAPGKERELVASITRSGGSTYYADSVKGRFTISRDNAKNTVYLQMNSLKPEDTAVYYCAAYLDTSRYGVLYDYWGQGTQVTVSS	low polyreactivity
QVQLVESGGGLVQAGGILRLSCAASGNIFESYGMGWYRQAPGKERELVAANSYSGGTTYYADSVKGRFTFSRDNEKNTVYLQMNSLKPEDTAVYYCAARLHHFFTYDYWGQGTQVTVSS	low polyreactivity
QVQLVESGGGLVQAGGILRLSCAASGQIFTYYVMGWYRQAPGKERELVAAIDWDSGSTSYADSLKGRFTISRDNAKNTVYLQMNSLKPEDTAVYYCAADEVLSGYYTLDYWGQGTQVTVSS	low polyreactivity
QVQLVESGGGLVQAGGILRLSCAASGRIFHWYAMGWYRQAPGKERELVDAITDGYSTYYADSVNGRYKISRDNAKNTVYLQMNSLKPEETAVYYCAADVGYSPYVFGVTRYYKYDYWGQGTQVTVSS	low polyreactivity
QVQLVESGGGLVQAGGILRLSCAASGRIFKDNAMGWYRLAPGKERELVATIDSGGDTNYADSVKGRFTISRDNAKNTVYLQMNSLKPEDTAVYYSNTEGFLSAVYAFGYWGQGTQVTVSS	low polyreactivity
QVQLVESGGGLVQAGGILRLSCAASGRIFPKYAMGWYRQAPGKERELVAAIRWSGGNTYYADSVKGRFTISRDNAKNTVYLQMNSLKPEDTAVYYCAATPYVSKYYYFGHDYWGQGTQVTVSS	high polyreactivity
QVQLVESGGGLVQAGGILRLSCAASGRIFTRYSLGWYRPAPGKESELVAAISSGGSTYYADSVKGRFTISRDNAKNTVYLQMNSLKPEDTAVYYSAAKTRPQRTFSTRQQMNYWGQGTQVTVSS	high polyreactivity
QVQLVESGGGLVQAGGILRLSCAASGRIFYYNTMGWYRQAPGKERELVAAITRGGGRTYYADSVKGRFTISRDNAKNTVYLQMNSLKPEDTAVYYCNTRSTLGYYWGQGTQVTVSS	high polyreactivity
QVQLVESGGGLVQAGGILRLSCAASGRTFVLNAMGRYRQAPGKERELVAAITSGGSTYYADSVKGRFTISRDNAKNTVYLQMNMLKPEDTAVYYCAVTYKGDSSWPGDYWGQCTQVTVSS	low polyreactivity
QVQLVESGGGLVQAGGILRLSCAASGRTFYYYAMGWYRQAPGKERELVAAISWGGGRTYYADSVKGRFTISRDNAKNTVYLHMNSLKPEDTAVYYCDTTAYNGYDYWGQGTQVTVSS	high polyreactivity
QVQLVESGGGLVQAGGILRLSCAASGSIFLGNAMGWYRQAPGKERELVAVINSGGDTNYADSVKGRFTISRDNAKNTVYLQMNSLKPEDTAVYYCARRKGKWDSYGGWGQGTQETVSS	low polyreactivity
QVQLVESGGGLVQAGGILRLSCAASGSIFPYYAMGWYRQAPGKERELVATITSRGGSTYYADSVKGRFTISRDNAKNTVYLQMNSLKPEDTAVYYCNTLQPYLYDYWGQGTQVTVSS	high polyreactivity
QVQLVESGGGLVQAGGILRLSCAASGSIFYRNAMGWYRQAPGKERELVAAISARGGRTNYADSVKGRFTISRDNAKYTVYLQMNSLKPEDTAVYYCNTADSWYHRSQAYDYWGQGTQVTVSS	high polyreactivity
QVQLVESGGGLVQAGGILRLSCAASGSTFGRYAIGWYRPAPGTERELVAAISRRGGSTYYADSVKWRFTISRDNAKNNVYLQMYSLKPVDTAVYYCAADDVRTSGCHFDYWGDGTQVTVSS	high polyreactivity
QVQLVESGGGLVQAGGILRLSCAASGSTFSSNAMGWYRQAPGKERELVAAISKRGGRTYYADSVKGRFTISRDNAKNTVYLQMNSLKPEDTAVYYCAAEYWVPAWKFGYEYWGQGTQVTVSS	high polyreactivity
QVQLVESGGGLVQAGGILRLSCAASGSTFTDSDMGWYRQAPGKERELVAAITSGGSTNYADSVKGRFTISLDNAKYTVYLPMNSLKPEDSAVYYCAAADADRKYDYWGQGTQVTVSS	low polyreactivity
QVQLVESGGGLVQAGGILRLSCAASGSTISYNAMGWYRQAPGKERELVAAINYSGGNTNYADSVKGRFTISRDNAKNTVYLQMNSLKPEDTAVYYCAARWWSGYGYWGQGTQVTVSS	high polyreactivity
QVQLVESGGGLVQAGGILRLSCASSGNIFDRYAMGWYRQAPGKERELVAGITWSGGSTYYADSVKGRFTISRDNEKNTVYLQMNSLKPEDTAVYYCGQANYYWGQGTQVTVSA	low polyreactivity
QVQLVESGGGLVQAGGILRLSCSASGRTLPAYVMGWYRQAPGKERELVAAITSGGGGTYFADSVKGRFTISRDNAKNTVYLQMNSMKPEDTAVYYCATTGNFFHYVYDFDYYYWGQGTQVTLSS	low polyreactivity
QVQLVESGGGLVQAGGILRLSSAASGRTILSYAMGWYRQAPGKERELVAAITRSGGGTFYADSVKGRFTLSRDNAKNTVYVQMNSLKPEDTAVYYCAARYYNYASPTRFKYNYWGQGTQVTVSS	high polyreactivity
QVQLVESGGGLVQAGGILSLSCAASGFIFLYNMGWYRQAPGKEWQLVADISTGVSTNYADSVKGRFTISRDNAKNSVYLQMNSLKPEDTAVYYCAAVYYNGYQYEPWYDYWGQGTQVTVSS	low polyreactivity

Sequence	polyreactivity (PSR sort gate)
QVQLVESGGGLVQAGGPLRLSCAASGRIFWPYTMGWYRQTPGKERELVAVITYSGGSTYYADSVKGRFTISRDNAKNTVYFQMNSLKPEDTAVYYCNAGIRFYLHAHGYYWGQGTQVTVSS	high polyreactivity
QVQLVESGGGLVQAGGRHRLSCAASGSTLTRNTMGWYRQAPGIQRELVATITRSGGSTYYADSVKGRFTISRDNAKNTVYLQMNSLKPEDTAVYYCAVRRQTFRYVYPGMDYWGQGTQETVSS	high polyreactivity
QVQLVESGGGLVQAGGRHRLTCAASGRILGYYAMGWYRQAPGKQRELVAAITRGGTTNYADSVKGRFTISRDNAMNTVYLQKNSQKPEDSAGYYCAADLARYGKRYDFWGQGTQVTLSS	low polyreactivity
QVQLVESGGGLVQAGGRLLLSCAASGFIFYSNAMGWYRQAPGKERELVAAISRSGGSTYYADSVKGRFTISRDNAMNTVFLQMNSLKPEDTAVYYCNADYVYRRYGYWGQGTQVNVSS	high polyreactivity
QVQLVESGGGLVQAGGRLLLSCAASGFTFPRYVMGWYRQAPGKEREFVAAITFSGGSTYYADSVKGRFTISRDNAKNSVYLQMNSLKPEDTAVYYCAAGASLWRLGLKMGYWGQGTQVTVSS	low polyreactivity
QVQLVESGGGLVQAGGRLRFSCAASGFIFRYYAMGCYRQAPGKERELVAAIDYSGGSTNYADSVKGRFTISRDNAKNTVYLQMNSLKPEETAVYYCNAEYTWHRGYDYWGQGTLVTVSS	low polyreactivity
QVQLVESGGGLVQAGGRLRFSCAASGSIFEYYTMGWYRQAPGKERELVAAISDGGSTYYADSVKGRFTISRDNAKNTVYLQMNSLKPDDTAFYYCAAEYQQDFWVAVDYWGQGTQLTVSS	low polyreactivity
QVQLVESGGGLVQAGGRLRIICAASGYIFRFNAMGWYRQAPGKERELVAVITKSGGSTYYADSVKGRFTISRDNAKNTVYLQMNRLKPEDSAVYYCNADRFYIDYTNTYDSIRDYWGQGTQVTVSS	low polyreactivity
QVQLVESGGGLVQAGGRLRISCAASGRTFQVYTIGWYRQAPGKERELVAAITWNGGRSRYADSVKGRFTISRDNAKNTVYLQMNRLKPEDTAVYYCNAGSTELGWTWELDYWGQGTQVTVSS	high polyreactivity
QVQLVESGGGLVQAGGRLRISCAASGRTFSHNTMGWYRQAPGKERELVAAITGSGASTYYADSVKGRFTISRDNAKNTVYLQMNSLKPEDTAVDYCAKVSRQSWDEYDTWGQGTQVTVSS	low polyreactivity
QVQLVESGGGLVQAGGRLRISCAASGSTFKANAMGWYRQSPGKERELVASIRFSAGSTYYADSVKGRFTISRDTAKNTVYLEMNRLKPEDTAVYYCAAGRHVLKRRYDYWGQGTQVTVSS	low polyreactivity
QVQLVESGGGLVQAGGRLRISCAASGTIFYSYEMVWYRKAPAKERELVAAITQSGSSTYYADSVKGRFTISRDNAKNTVYLQMNSLKPEDTAVYYCAAVSRRHPTMSDYWGQGTQVTVSS	high polyreactivity
QVQLVESGGGLVQAGGRLRLRCAASGHIFYYYTLGWYRQAPGKERELVAGITIGGSTNYADSVKGRFTISRDNAKNTVYLQMNSLKPEDTAVYYCNVVKYVYIYSYWEYYYWGQGTQVTVSS	low polyreactivity
QVQLVESGGGLVQAGGRLRLRCAASGSIFEPNAMGWYRQSPWKERELVATIRDSGGRTYYADSVKGRFTISRDNAKNTVYLQMNSLKPEDTAVYYCAARRYLGWFSYRLYDYWGQGTQVTVSS	high polyreactivity
QVQLVESGGGLVQAGGRLRLRCAASGSIFYAYDRGWYRQAPGKERELVAAINWSGDSTYYADSVKGRFTISRDNAKNTVDLQMNSLKPEDTALYYCAAVSGSGDSGEYDYWGQGTQVTVSS	low polyreactivity
QVQLVESGGGLVQAGGRLRLSCAASGFIFTEYAMGWYRQSPGKERELVAAINSGGRTKYADSVKGRFTISRDNAKNTVFLQMNSLKPEDTAVYYCAARRFPTYDYWGQGTQVTVSS	high polyreactivity
QVQLVESGGGLVQAGGRLRLSCAASGFTFKKNAMGWYRQAPGKERELVAAIRSGTSTKYADSVKGRFTISRDNAKNTVYLQMNSLKPEDTAVYYCAAEEPEYLATWRNRRYDYWGQGTQVTVSS	low polyreactivity
QVQLVESGGGLVQAGGRLRLSCAASGFTFTNYAMGRYRQAPGKERELVAAISWNGGSTYYADSVKGRFTISRDNAKNTVYLQMNSLKPEDTAVYYCNAYDYQYFYGYEYDYWGQGTQVTVSS	high polyreactivity
QVQLVESGGGLVQAGGRLRLSCAASGFTFTPYAMGWYRQAPGTERELVAAISWGDGSTYYADSVKGRFTISRDNAKNTVYLQMNSLKPEDTAVYYCAAYRGPRIYRYDYWGQGTQVTVSS	high polyreactivity
QVQLVESGGGLVQAGGRLRLSCAASGFTFYRYAMGWYRQAPGKERELVAAITDSGDSTYYADSVKGRFTISRDNAKNTVYLQMNSVKPEDTAVYYCNTLVDLDGFEYYYWGQGTQVTVSS	high polyreactivity
QVQLVESGGGLVQAGGRLRLSCAASGFTIRWYTMGWYRQAPGKERELVAAISRGGSTNYADSVKGRFTISRDNAKNTVYLQMNSLKPEDTAVYYCAATVYAFTYPYDYWGQGTQVTVSS	high polyreactivity
